{
  "source": "paper PMC13466294",
  "about": "“Nucleolaron1511 and Nucleolaron1510 Facilitate Effective Intracellular Delivery of Azami Green Protein in HeLa Cells” (International Journal of Molecular Sciences, 2026)",
  "key": {"HeLa cells [1]": {"test_system": "HeLa cells", "test": "Cellular uptake of TAMRA-labeled Nuc1510 by fluorescence microscopy", "format": "cell-based", "settings": "5 µM in DMEM with 10% FBS, 1 h, 4 h or overnight (any incubation condition)", "protocol": "To examine the intrinsic cell-penetrating ability of Nuc1510, HeLa cells were treated with TAMRA-labeled Nuc1510 prepared in medium supplemented with 10% FBS and analyzed by fluorescence microscopy at 1 h, 4 h, and overnight incubation time points.\nHeLa cells were seeded at 2 × 10^4 cells per well in 8-well chamber slides (Millicell EZ Slide, Sigma-Aldrich, St. Louis, MO, USA; or µ-Slide 8 Well glass-bottom, ibidi, Gräfelfing, Germany) and allowed to adhere for 24 h. For assessment of intrinsic cell-penetrating ability, the culture medium was replaced with free TAMRA or TAMRA–Nuc1510 at 5 µM prepared in DMEM supplemented with 10% FBS. For assessment of cargo delivery, cells were treated with AG, AG–Nuc1511, AG–Nuc1510, or AG–TAT at 1, 2, or 3 µM prepared in DMEM with 10% FBS. All cargo delivery treatments were performed at 37 °C, and the highest concentration (3 µM) was additionally tested at 4 °C to assess the contribution of energy-dependent uptake pathways.\nTAMRA–Nuc1510 samples were incubated for 1 h, 4 h, or overnight at 37 °C, whereas all AG–CPP samples were incubated overnight only. […] Fluorescence imaging was performed using a Keyence BZ-X800 (Keyence, Osaka, Japan) digital fluorescence microscope. […]"}, "HeLa cells [2]": {"test_system": "HeLa cells", "test": "Cell viability by MTT assay", "format": "cell-based", "settings": "24 h", "protocol": "To assess the cytotoxic potential of Nuc1511 and Nuc1510, HeLa cells were treated with AG–Nuc1511 or AG–Nuc1510 at concentrations of 1, 3, 5, and 10 µM for 24 h, and cell viability was quantified using the MTT assay (Figure 4). AG–Nuc1511 caused a gradual concentration-dependent decline in viability, reaching approximately 78% at 10 µM, which was statistically significant relative to the untreated control. […] Taken together, both fusion proteins were well tolerated at concentrations up to 5 µM, with cytotoxicity becoming apparent only at 10 µM.\nHeLa cells were seeded at 1 × 10^4 cells per well in 96-well microplates (Nunc^TM MicroWell^TM; Thermo Fisher Scientific) and allowed to adhere overnight. The culture medium was replaced with AG–Nuc1511 or AG–Nuc1510 at 1, 3, 5, or 10 µM prepared in DMEM supplemented with 10% FBS. Cell viability was assessed by MTT assay. Following 24 h incubation, treatment solutions were removed and cells were washed with PBS. A mixture of 50 µL MTT solution (Fujifilm) (5 mg/mL in PBS) and 50 µL Opti-MEM I Reduced Serum Medium (Thermo Fisher Scientific) was added to each well, and plates were incubated at 37 °C for 3 h. The medium was then removed, and formazan crystals were dissolved by addition of 150 µL MTT solvent (4 mM HCl, 0.1% NP-40 substitute in isopropanol), followed by 30 min agitation on an orbital shaker protected from light, with additional pipetting to ensure complete dissolution. Absorbance was measured at 590 nm. All conditions were performed in triplicate."}, "four cell lines": {"test_system": "four cell lines", "settings": "CPP fused to EGFP, across four cell lines; ref 45 (Patel et al.); cited from earlier work", "protocol": "To quantify intracellular delivery, flow cytometry was performed following a stringent surface-depletion protocol. Cells were washed with an acidic glycine-NaCl solution to disrupt electrostatic interactions between surface-bound AG–CPP and the plasma membrane, then treated with trypsin, which both detaches cells from the culture plate and cleaves CPP sequences at arginine and lysine residues—amino acids abundant in all constructs tested—thereby eliminating residual surface-associated fluorescence. This protocol ensures that the measured fluorescence predominantly reflects int ..."}},
  "data": [
    {"substance": "5(6)-carboxytetramethylrhodamine [Free TAMRA]", "values": [
      {"measurement": "Intracellular TAMRA fluorescence", "setting": "HeLa cells [1]", "result": "no detectable intracellular fluorescence"}
    ]},
    {"substance": "MKDHLIHNHHKEEHAHAHNKDYDIPTTHHAHHSTENLYFQGSSGSSGMSVIKPEMKIKLCMRGTVNGHNFVIEGEGKGNPYEGTQILDLNVTEGAPLPFAYDILTTVFQYGNRAFTKYPADIQDYFKQTFPEGYHWERSMTYEDQGICTATSNISMRGDCFFYDIRFDGTNFPPNGPVMQKKTLKWEPSTEKMYVRDGVLKGDVNMALLLEGGGHYRCDFKTTYKAKKDVRLPDAHKVDHRIEILKHDKDYNKVKLYENAVARYSMLPSQAKGLQQGGTGGGGSKVLSRVVQLCREKLTRRRRSNRR [AG–Nuc1510, monomeric Azami Green genetically fused at its C-terminus via a linker to Nuc1510]", "values": [
      {"measurement": "Reduction of viability", "setting": "HeLa cells [2]; 10 µM", "result": "approximately 50%"},
      {"measurement": "Effect on viability", "setting": "HeLa cells [2]; 1, 3, or 5 µM, Welch's t-test against untreated control", "result": "did not significantly reduce viability"}
    ]},
    {"substance": "MKDHLIHNHHKEEHAHAHNKDYDIPTTHHAHHSTENLYFQGSSGSSGMSVIKPEMKIKLCMRGTVNGHNFVIEGEGKGNPYEGTQILDLNVTEGAPLPFAYDILTTVFQYGNRAFTKYPADIQDYFKQTFPEGYHWERSMTYEDQGICTATSNISMRGDCFFYDIRFDGTNFPPNGPVMQKKTLKWEPSTEKMYVRDGVLKGDVNMALLLEGGGHYRCDFKTTYKAKKDVRLPDAHKVDHRIEILKHDKDYNKVKLYENAVARYSMLPSQAKGLQQGGTGGGGSTLKERCLQVVRSLVKKKRTLRKNDRKKR [AG–Nuc1511, monomeric Azami Green genetically fused at its C-terminus via a linker to Nuc1511]", "values": [
      {"measurement": "Viability (%)", "setting": "HeLa cells [2]; 10 µM, relative to untreated cells (100%), n = 3, 10 µM", "result": "approximately 78%"}
    ]},
    {"substance": "Penetratin", "values": [
      {"measurement": "Uptake efficiency relative to TAT", "setting": "four cell lines", "result": "performed comparably to TAT"}
    ]}
  ]
}
